The values below come from the DeepSol protein solubility set.

The nature of this data set: soluble on expression in E. coli; label from the status in PepcDB or PDB records.
Take “MDEEKIVLIGNESDLLHCGYNFALRAGGKRYPSAAHYTHYQILMSLNLPETAVEELLCTNSCDVHQKALVILQENMPDGHTINSLAAYLSESLRSYSIHALQLRAESDKDFEKTLMKTNEALLIVCDEKNPQLGIGMNDKTFMEWMAKEKADSRQISYWMKNEHTKPADLGQNKLGQYLMWLRFEIRERKKQGILTRPVVEVAGLSTDKDDEPIMISINDLVISLEGIFRPLSNYYAFPFEMKRERYRSVEHYAYEKLFNSLKLDEKAIEKIQTTPAPLNVPVVASKLLRKLEINPETIAEKTSKMDRWRQSAMKHKIYHNEYLQQLLLSTGSAILIDSSLGDPLWTCGATEVELQHLLTKSYVTPEKLVGWMLDGEETNTPKSVRHLYGNKSGLLLMELREKLSLQTTSRIPLVKLSKMNLNPLSGIVTPNVICFTPESVFHPLYPAEIRCSADGPPLPSPVHYVATQAAKFLSMNQEDTEYILEGPSSIQCWSRLHEVIESRGRGLELEQTWWMDKRMQFIKESLQLLLEQHPALLRALLDTGDSMLVYCSRFSSMDAELSMGMREMDFRYWLQEVDLTTKQLIELCTRPMAFRPPYIGGNRLGMILMELRREFVLQGVFPQQLPELQLTADSILGSNSPTENFMTSEYFDILQPWNYTALWINPLFLLAKDGNQEAMAQCTRIKTAPRMVTIDDEKVTDIVENLVNDETQEEALNSIAPEDLRAVFMKLCARLRGKIETLDRQSMELSMVAMETHRLQSIRRSLADTAERAETEGPSSSTGPSISAPPIPSRPGHSNYRMAAGRERDREEEREKDRERLQSQLSTSSSGPQGSASRKERMEYKIPTTSRRKFGKDRDRLPEKSSSDRGRDKHLDTPTKKRVNQSPPSRKAAPSPAKKPAISTSTPAVVVPPKPKRDPEEELSDGEILSTDEEDN”: the “soluble on expression in E. coli” value is given as “not soluble”.

On to “MGNIIRIGMADLKASHHPAILTTLGLGSCVGIALYDRTTKIVGLAHAMLPDSSQVKNKTNAAKFVDTAIELLVKEMLSLGASKKRIVAKLAGGAQMFTFTQGAELMRIGQRNVAAAKSKLESLDIPVVSEDTGGNYGRTVELDSESGMLLIRTIGYGTKQI”, for which the “soluble on expression in E. coli” value was “not soluble”. In the case of “MLRFYAMKQITEPGTYEIRGEVAEGDFSWDATNFAGFFYDVNDDVSTESLTVTGLNGGNVIPEGGLVYETTIQMVDYEYSKPSVGWDQFPVLGFFAEEYIPINADKADKLAKLVLDSDDKYTIRTGEQLDLGEGYAIEAKQVDVDGEKVWLEFTKDGEFVDDEIISVVSGSDNTWEVELDDIQDEDDVVVLRVHVNQVFQGAVDSIAQIEGIWLIDYANAMKIESDDEFGDLDNVKINGATLTITNEDTFTLTRDDEVEIGQGMFFKVADTAASDLRYYPFVEKTIDGEVVDDDEDDDNVTEPVDNDTEVEEPTEEPTEGPTEELEHHHHHH” it was “not soluble”; in that of “MEVPKNPYESTWTGYDFYYEKEPKKVPPSAGSGKMPAFQSIASISTDRESPEDPGNSGYLASGAESGPKKTTSKPATTPTPEPTTTPVEEEKVKVSPSSSTKDPSKLHKTTKTPVTITNIISTTTAPPAPSRAPENDPESGSDQSESTDNLDLLYGGGSSATATGEDKKARHSTTNNPNFCTDPPKLHDPPPPHPSAPQNLLTQLIQKKKDAPNKGSSEKSSKWSDDHASGYPEGSAPSAEPSENQYEQDGSIPSSNDYKELTDVPGTKPSSSASRGSNMAGNPTAPLTTTQHTFAPNSTETSRSSTSRGKAPGTEPKSEARYSSQNPYSDNSSTQKPEYESGYPAVSGANSRAQIPNITDYTKPSAVSIEYASSSKERSDPPFSTPLTSNSQHVLTQPRPRDYEDGPQETTRTKASGTKSPNSLQAPQQTAAHLMKNARAPGPEPSLHSTTTHHVQTPIITIAPKFSEPSPYAENIMLTPKQAPGTEPRSNSQNPQTDRLASQSGYESGGPGRPQNVSIRHRENPKGSDAISRTAITPSKIDYFAPSSPTGPIGYERQVPSFKEGPDHQYTKYSTLNSPPAPSPQESSTITHHVSTSPDFLEPSSESSVLLPKQAPGTNPSTSNSPPGYSELIGPSGPESQGYEPMGNNGPSIFEGPGTESGYSEPKALSTASQKTKPDDKPYEIPRSIEPSNSKPYPSDSSWSDHDNAPGSEPSYIPDVLDYGARANNHAGKMMNMSHATSPSTGSPSNSNNAISARDPYDHFGTITAPSDIPRANSNFEEYPDDGGYDGTNDVAIVPLRTQHGTNPSTITTTNTQVRAQISEIDRIAESFENSAREPVEYEQRITSESSKGITAVTGKDFMKKLGRKSPTCCSCCDEKQSVSRNIETQADPLHVQHAVDPSRQLVESEPVQNFVPLQNTVGGNAYIQPQPVAQQQTIYQQPFQQYQPQYPQSYQQPSCGCQPQPQNCCAPPAPCCLPTIPCCPPIPCCPQPKICCQPAPVCLPPPTCCSINFKLPTIPICGRACPSCPCRRRMHKSRRLKRHSINSNCHQCSSAGEPWRSVLHHREKRAAPGCTSGFSTMSQNSCGTCGASNLRSPRVKRMGCLPCLGRKKRDTDENSHIRVKRMGCLPCLGRKKRSTLSQSGCSQCNSMGHLFNRYKRSLFGGCSPCAPQQPCGCGRKKRSVTMKLVKRAPMQCDSTCCDFSRCPYRQKKEALVPFM”, “not soluble”; in that of “MGFKTVAKEEKQQLVANVFHSVAAKYDLMNDLLSFGIHRIWKRFTIDCSGVRKGQKVLDLAGGTGDFSAKFSRIVGETGQVVLADINSSMLEVGRDKLRNLGVVGNINYVQANAEHLPFADNTFDCVVISFGLRNVTDKDKALKSMYRVLKPGGRLLVLEFSKPIFDPISQLYNFYSFNILPKVGGIVVNDAESYRYLAESIRMHPKQDELKTMMEHAGFESVNYYNLSAGIVALHRGYKLEHHHHHH”, “not soluble”.

Turning to “YVSTDGDDIYVGKNNKQNDYLTNKKAKKTHTWLHTKDIPGSHVVIFNDAPSDTTIKEAAMLAGYFSKAGNSGQIPVDYTLIKNVHK”, the “soluble on expression in E. coli” value was “not soluble”. In the case of “MNGRVDYLVTEEEINLTRGPSGLGFNIVGGTDQQYVSNDSGIYVSRIKENGAAALDGRLQEGDKILSVNGQDLKNLLHQDAVDLFRNAGYAVSLRVQHRLQVQNGPI” it was “soluble”; in that of “MGSDKIHHHHHHMYSLAVNNGTLSDEQISGLVHQALADRQLDGQRILILIPDGTRTAPIPQIFRLLHQELGKRVPALDFLIALGTHNPMSEEQINHLVGVTPKERETTFKKVRIFNHLWNEPDTFISCGVISADEIAEISRGMLHQSVEVRVNKLVTQYDLIMICGPVFPHEVVGFSGGNKYFFPGIGGQEVIDISHWLGALITSYEIIGTSGITPVRRLINRAANLISTPKLCLAMVVAPKTNQLAGLYIDKPESAWEAAAKLSDKLHITYVDRSFKQVLSVMPEMYDDIWTAAKGMYKLEPVVADGGEVIIYAPHITEFSYTHGEILSQIGYHVRDYFLKQWDKFQAYPGGVLAHSTHLKGMGTFDFTEGEKARIRVTLATGISAERCAAHNLNYRDPATIRPTEWANREDEGILLVPKSGEILYRLIQA”, “not soluble”. In the case of “MYMRAGDGRVHGIYSSTDVANLILKTTGTALMDKKKLHKLLYYMQGWTLAALGRPAFANDLQAWVDGPVSVGMRRDTHYATCFEVANRPLSNPLAPQDRDLLALMYLIAPFYAQQQTQALVDSTHAEAPWLDARGGLPPPMPIPARRSLTTHCTATFHSTPASWV” it was “not soluble”. For “MAHHHHHHMRRGGTVVFQRHRVSGGISRANEMSAFARLRGGQQKTETDWVPTLLLSGETPPPIARPAETAAFFLASFDPFVFSYCMFDFPTILHHAGELSEHELLDYPGSMLMSPRSLFLQPTAHLRFGSERQQRMAVVLQSLLDRHDESERSPVPCARALGVQCPLFVPFLRGVCLCVETQHPFAPQAAYVFEELLASGFVSSTLYLDGTYVDRNRTLAQIVQLAAREFGSESALFTGLLLDEEHASPPETIAVGRLVAQTLAAADRRRLDWALKTRGAVRQRLVPQHGWTLGPSPSLLSTAQQ” the value was “soluble”; for “MGSDKIHHHHHHMAKLYFYYSTMNAGKSTTLLQSDYNYRERNMNTLVYTAAIDDRFGKGKVSSRIGIHRQANLFHKDTDLFTEIALHIKQQKLHCILIDEAQFLTKAQVYQLSNVVDELNIPVLCYGLRTDFQAELFEGSKYLLAWADQLEELKTICYCGRKANFVLRLNEQGKAVKDGEQIQIGGNDSYMSVCRKHYKEILYSSNE”, “not soluble”; for “MGHHHHHHSHMQPAKEVTKASDGSLLGDLGHTPLSKKEGIKWQRPRLSRQALMRCCLVKWILSSTAPQGSDSSDSELELSTVRHQPEGLDQLQAQTKFTKKELQSLYRGFKNECPTGLVDEDTFKLIYAQFFPQGDATTYAHFLFNAFDADGNGAIHFEDFVVGLSILLRGTVHEKLKWAFNLYDINKDGYITKEEMLAIMKSIYDMMGRHTYPILREDAPAEHVERFFEKMDRNQDGVVTIEEFLEACQKDENIMSSMQLFENVI”, “not soluble”.

Regarding “LNDPLDSGRFSRKQLDKKYKHAGDFGISDTKKNRETLTKFRDAIEEHLSDKDTVEKGTYRREKGSKVYFNPNTMNVVIIKSNGEFLSGWKINPDADNGRIYLETGEL”, the “soluble on expression in E. coli” value is listed as “soluble”. In the case of “MDWTRRLRLQHLQLLVSLMETGNLSGTARAAHTTQPGLSKWLKELEEDVGAPLFERHARGLRPTPYGMTLFNHAQRVLTEMERARQNLEAMRSGSGSRVLLGTSPASAPSLVPRALRAFLGRYPGAQVELLEGTMNGLLERLEKRQLDVVVGRLDNYAPRASLRCEVLYSEAIVVMARPGHPLAQAAALDWEDVRRYDWIVWPPGSPIRSKLDMALTQGGRQPPAYRLESSSMLANIELLRGSDMLSIGSARVVEHLAGLGLVARLALEIPGEGAVGMCWRDEPHRDRASEDLLACLREGAAAE” it was “not soluble”. For “MGHHHHHHSHMWVDDFPLHRSACEGDSELLSRLLSERFSVNQLDSDHWAPIHYACWYGKVEATRILLEKGKCNPNLLNGQLSSPLHFAAGGGHAEIVQILLNHPETDRHITDQQGRSPLNICEENKQNNWEEAAKLLKEAINKPY” the value was “not soluble”; for “MSKLGKQDVYYFEGLDDILIAMMTTKDAVGTEPAFGEVVRLPIATKLGIKGNGTALEKWASSKMFRRVSRETKHEIALDHVGIPIAVMDEIKGLIAQSGVTFGKNTAREFPYFAFGFIGNIENGGKKAVWYPKTQLSNVIDEEYTTAEDETKIDDVTANFVSTGLTYNNVMYSSFDSNRDSASIELFEKFIAQPVYDEEQWKKLAGPSRGGGSELEHHHHHH”, “soluble”. In the case of “TVPGATTTSSAATETMENVKKCKNFLSTLIKLASSGKQSTETAANVKELVQNLLDGKIEAEDFTSRLYRELNSSPQPYLVPFLKRSLPALRQLTPDSAAFIQQSQQQPPPPTSQ” it was “soluble”.

Consider “MNIERKQAKQKEISSGHSFLEWGMTILKMPPAKRIKMVRDGVKVTHLVGAGRYYGISQAKLSKLLGISDATITRKIRSSGKLGPLESERLARIALIEAEAEKVFDSSDLAKRWMLESNLALGESPLSLLDTDMGADEVRKVLASIAYGGIA”, for which the “soluble on expression in E. coli” value was “not soluble”. For “MSRPPSRPRMMCARVLLLLSVTGLVLACETGPSSGDYEQAVMQDRVQRDMQMREKESVLPPGRREAFRGLNFYEVDPAYRYTVPLRRFETPDTVMIPESTGDLRPQQRIGEVTVPLPEGPEELVVFRGEGDTPRGRLWIPFADSTNRHATYKGGRYVDLTSTDSDSVVVDFNRAYNPTCAYNPDFACPLPPPENRIAVPVAAGEKRPTFGGLEHHHHHH” the value was “not soluble”; for “MGSDKIHHHHHHMHYLPFIRVVMNTADEDAQMERDEWASREVMPITNWGRRPDGSEIVQYDAPMFFSFTEHSLLHQYPHMRAECHWHVDLELTYIIHGHMWYFVNGETVRLDEGQAIFVNSRQLHYGFTKDGSDCEFSCTLLNPAKMCASFEVYDRFIAPLMAENTMPYAVITDDTAPGRRLLATIRQLHAAKFGPLERSERSAEPLPADDMTLTDNTEALTVLSCFYAVVRDILAIAGSHCATSTAPHPRIVTLRKMIDYVQRYYVRPITLKQIASAGSVGRTTCASIFRESLNQSPIEFVNDVRVRAAANLLVTSSLPIATVAKQTGFSSASFFSRTFHRFMGVTPITYRTTHTKRKSEE”, “not soluble”.
